According to paper PMC4010427, “Structural and Functional Similarity of Amphibian Constitutive Androstane Receptor with Mammalian Pregnane X Receptor” (PLoS ONE, 2014):

Experiments:
[1] = molecular target: T1, xlCARα (Xenopus laevis, UniProt A0A1L8FCY0); assay: CARLA: ligand-dependent pull-down of […]-labelled receptor by GST-SRC-1 RID; details: pH 8.0, 4 °C overnight; agonist; indirect coactivator-dependent binding assay
T1 construct: gene nr1i3.L; full-length; 35S-Met labelled by in vitro transcription/translation (CARLA, with human GST-SRC-1 RID 583-783 as read-out) or expressed in HepG2 cells; LBD residues 145-423
T1 sequence (A0A1L8FCY0 19-441): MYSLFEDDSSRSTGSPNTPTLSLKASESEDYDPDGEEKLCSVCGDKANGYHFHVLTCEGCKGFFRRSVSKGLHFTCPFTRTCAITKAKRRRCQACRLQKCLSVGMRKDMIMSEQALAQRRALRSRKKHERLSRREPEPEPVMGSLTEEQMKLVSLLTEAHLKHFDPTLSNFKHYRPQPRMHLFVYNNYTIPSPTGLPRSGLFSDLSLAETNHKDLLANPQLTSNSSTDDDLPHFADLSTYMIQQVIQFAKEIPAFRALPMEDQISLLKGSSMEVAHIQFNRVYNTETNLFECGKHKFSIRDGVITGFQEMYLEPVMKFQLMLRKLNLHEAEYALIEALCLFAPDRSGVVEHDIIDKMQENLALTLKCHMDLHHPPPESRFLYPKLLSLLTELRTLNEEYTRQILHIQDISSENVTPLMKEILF

[2] = molecular target: GST-tagged SRC-1 RID protein (recombinant human SRC-1, amino acids 583–783) (UniProt Q15788); assay: CARLA; details: n = 3, read off a plot; for other: fold induction (fold over DMSO only (=1)): 100 µM pregnanedione (log M = -4.0), parent: est. 74; for response: absence of ligand (DMSO only), parent: est. 0.10
[3] = molecular target: GAL4-DBD/SRC1-RID fusion protein (human coactivator SRC-1, receptor interaction domain, amino acids 583–783) (UniProt Q15788); assay: mammalian two-hybrid assay; details: COS7 cells; pM-SRC-1 (black bars); no ligand; n = 9; empty pVP16-AD with pM-SRC-1 est. 0.57 (red line); parent: est. 0.49; read off a plot
[4] = molecular target: GAL4-DBD/RXRα-LBD fusion protein (human retinoid X receptor α, amino acids 226–462) (UniProt P19793); assay: mammalian two-hybrid assay; details: COS7 cells; GAL4-dependent pGL3G5 reporter; no ligand; n = 6; parent: est. 40; read off a plot
[5] = molecular target: GAL4-DBD/PGC-1α-RID fusion protein (human PGC-1α, receptor interaction domain, amino acids 88-213) (UniProt Q9UBK2); assay: mammalian two-hybrid assay; details: COS7 cells; pM-PGC1a (black bars); no ligand; n = 9; empty pVP16-AD with pM-PGC1a est. 3.3 (red line); parent: est. 3.6; read off a plot
Chain of GAL4-DBD/PGC-1α-RID fusion protein (human PGC-1α, receptor interaction domain, amino acids 88-213) (Q9UBK2 88-213): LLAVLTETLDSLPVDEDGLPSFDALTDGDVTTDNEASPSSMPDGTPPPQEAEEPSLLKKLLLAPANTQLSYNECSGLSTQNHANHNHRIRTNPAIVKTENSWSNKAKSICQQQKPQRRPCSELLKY

Chain of GAL4-DBD/RXRα-LBD fusion protein (human retinoid X receptor α, amino acids 226–462) (P19793 226-462): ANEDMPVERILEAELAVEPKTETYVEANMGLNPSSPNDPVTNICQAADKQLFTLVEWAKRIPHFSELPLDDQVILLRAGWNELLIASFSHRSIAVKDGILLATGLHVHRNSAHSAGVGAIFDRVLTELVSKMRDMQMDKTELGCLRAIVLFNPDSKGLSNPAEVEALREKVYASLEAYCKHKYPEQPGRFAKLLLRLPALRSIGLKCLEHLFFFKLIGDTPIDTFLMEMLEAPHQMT
Chain of GST-tagged SRC-1 RID protein (recombinant human SRC-1, amino acids 583–783) (Q15788 583-783): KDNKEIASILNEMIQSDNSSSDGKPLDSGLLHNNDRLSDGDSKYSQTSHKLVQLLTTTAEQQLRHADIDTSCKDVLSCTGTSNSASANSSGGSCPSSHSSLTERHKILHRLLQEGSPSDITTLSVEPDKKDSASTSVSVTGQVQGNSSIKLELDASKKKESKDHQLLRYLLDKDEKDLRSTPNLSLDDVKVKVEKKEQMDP
Chain of GAL4-DBD/SRC1-RID fusion protein (human coactivator SRC-1, receptor interaction domain, amino acids 583–783) (Q15788 583-783): as above

Molecule	fold induction of SRC-1 interaction [1]	other: fold induction (fold over DMSO only (=1)) [2]	response [2]	response [3] [rel pM/pVP16]	response (fold over empty vector pVP16-AD (=1)) [4]	response [5] [rel pM/pVP16]
CC(=O)[C@H]1CC[C@H]2[C@@H]3CC[C@@H]4CC(=O)CC[C@]4(C)[C@H]3CC[C@]12C [5β-pregnane-3,20-dione]	suggests that xlCARα binds pregnanedione with higher affinity than hsCAR					
full-length Xenopus laevis CARα, wild type, 35S-labelled Leu237Ile		28	0.05 % of input			
full-length Xenopus laevis CARα, wild type, 35S-labelled Met272Val		16	0.17 % of input			
VP16-AD/xlCARα-LBD fusion protein, wild type (Xenopus laevis constitutive androstane receptor α, amino acids 145–423) Val315Ile				0.38	41	2.8
VP16-AD/xlCARα-LBD fusion protein, wild type (Xenopus laevis constitutive androstane receptor α, amino acids 145–423) Met272Val; Met316Phe				0.77	59	5.5
full-length Xenopus laevis CARα, wild type, 35S-labelled His295Leu			0.11 % of input			
VP16-AD/xlCARα-LBD fusion protein, wild type (Xenopus laevis constitutive androstane receptor α, amino acids 145–423) Tyr311Phe				0.61	98	4.2
VP16-AD/xlCARα-LBD fusion protein, wild type (Xenopus laevis constitutive androstane receptor α, amino acids 145–423) Met316Phe				0.8	56	5
full-length Xenopus laevis CARα, wild type, 35S-labelled Val315Ile		10	0.09 % of input			
VP16-AD/xlCARα-LBD fusion protein, wild type (Xenopus laevis constitutive androstane receptor α, amino acids 145–423) Met272Val				0.71	55	5.5
VP16-AD/xlCARα-LBD fusion protein, wild type (Xenopus laevis constitutive androstane receptor α, amino acids 145–423) Thr305Val				0.99	110	5.7
full-length Xenopus laevis CARα, wild type, 35S-labelled Ser238Asn			0.11 % of input			
full-length Xenopus laevis CARα, wild type, 35S-labelled Phe279Leu		2	0.05 % of input			
VP16-AD/xlCARα-LBD fusion protein, wild type (Xenopus laevis constitutive androstane receptor α, amino acids 145–423) His295Leu				0.45	47	2.8
full-length Xenopus laevis CARα, wild type, 35S-labelled Phe297Tyr			0.11 % of input			
full-length Xenopus laevis CARα, wild type, 35S-labelled Tyr311Phe			0.06 % of input			
